# In PMC3601014, “Blood-brain barrier transport of amyloid beta peptides in efflux pump knock-out animals evaluated by in vivo optical imaging” (Fluids and Barriers of the CNS, 2013):
# How the values were obtained:
# Abcb1 and Abcg2 = system: Abcb1 and Abcg2; parameters: method as in PMID 22391220; settings: in situ brain perfusion, Abcb1-deficient mice; cited from earlier work
# [1] = Western blot analysis of Aβ peptide solution (monomers/dimers); assay type: physicochemical; settings: dissolved in 10 mM NaOH, HEPES to pH 8.0, data not shown
# Method: Aβ1-40 peptide used in this study for optical imaging/tracking is the most abundant Aβ peptide found in the cerebral vasculature and is more soluble than Aβ1-42 peptide. Aβ1-40 peptides (1 mg/vial) were dissolved in 250 μL of 10 mM NaOH, and then 12.5 μL of 1 M HEPES [4-(2-hydroxyethyl)-1-piperazineethanesulfonic acid] was added to bring the pH to 8.0. The peptides were divided into 2 tubes (0.5 mg/tube) and kept at −80°C. Because Aβ peptides are commonly present as beta sheet structure in solution, Western blot analyses of the mixtures were performed, and the majority of the peptides (>95%) were monomers with a small proportion of dimers (data not shown). Aβ1-40 or scrambled Aβ40-1 peptides (0.5 mg, molecular weight 4329.86D) were labeled with the near-infrared fluorescent dye Cy5.5 (molecular weight 1128.42D) using the labeling kit (Cy5.5™ Mono NHS ester) as per manufacturer’s instructions.
# [2] = Time-domain in vivo optical imaging of head ROI, wild-type mice; parameters: species or system mouse; settings: i.v. injection, imaged 2–8 h; wild-type and KO mice
# Text: (§1) The experiments with animals have been approved by the Animal Care Committee of the National Research Council of Canada - Ottawa (NRC). Wild-type (wt), mdr-1a/b (Abcb1a/b) knockout (Abcb1^KO), and Abcg2^-KO mice of FVB background were purchased from the Taconic Farms Inc (New York, USA) and maintained in the NRC Animal Facility at Ottawa. Pairs of adult wild-type mice and Abcb1^-KO and pairs of adult wild-type and Abcg2^-KO mice of the same body weight and same sex were matched for injections and imaging experiments. After initial testing of fluorescence signal with various injected doses of Cy5.5-labeld Aβ peptides, the optimal dose selected for the experiments was 100 μg of labelled peptide in 200-μL volume. […]
# (§2) Briefly, each animal was positioned on a platform (dorsal side facing up) that was then placed on a heated plate (at 36°C) in the imaging system. […] The fluorescence emission at 700 nm was collected by a highly sensitive photomultiplier tube offset by 3 mm for diffuse optical topography reconstruction. […] A pulsed light source and time-resolved detection allows the system to resolve the nanosecond timescale of fluorescence emission. […] The data were thus recorded as TPSF and the images were reconstructed as fluorescence concentration maps. […] Brains were then extracted and scanned ex-vivo for fluorescence concentration
# Abcg2 = target: T1, Abcg2 (Mus musculus, UniProt Q7TMS5); assay: Time-domain in vivo optical imaging of head ROI, Abcg2-KO mice; settings: i.v. injection, imaged 2–8 h, 4 animals per group
# T1 construct: five pairs of adult wild-type and Abcg2^-KO mice were intravenously injected via the tail vein; tissue Taconic Farms Inc; host or cells: living FVB mice (head ROI / brain, blood-brain barrier)
# T1 sequence (Q7TMS5 1-657): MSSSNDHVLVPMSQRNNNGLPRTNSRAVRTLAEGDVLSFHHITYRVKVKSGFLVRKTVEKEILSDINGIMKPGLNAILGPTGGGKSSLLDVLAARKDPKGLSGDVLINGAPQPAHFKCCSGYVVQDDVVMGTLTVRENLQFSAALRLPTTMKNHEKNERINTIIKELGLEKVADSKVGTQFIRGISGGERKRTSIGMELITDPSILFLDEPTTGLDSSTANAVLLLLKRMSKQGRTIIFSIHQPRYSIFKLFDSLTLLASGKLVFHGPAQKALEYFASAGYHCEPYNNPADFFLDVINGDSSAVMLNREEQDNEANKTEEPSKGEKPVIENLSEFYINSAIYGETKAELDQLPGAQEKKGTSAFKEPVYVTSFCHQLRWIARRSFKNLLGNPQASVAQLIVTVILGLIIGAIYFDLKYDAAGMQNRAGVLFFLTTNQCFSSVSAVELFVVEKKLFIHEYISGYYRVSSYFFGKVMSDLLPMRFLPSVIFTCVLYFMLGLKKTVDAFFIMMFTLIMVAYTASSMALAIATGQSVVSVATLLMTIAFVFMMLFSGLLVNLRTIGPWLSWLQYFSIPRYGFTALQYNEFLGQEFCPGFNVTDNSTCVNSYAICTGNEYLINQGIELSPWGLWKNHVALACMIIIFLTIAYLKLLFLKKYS
# Text: as §1, §2
# [3] = system: mdr-1 P-glycoprotein/Abcb1; assay: Time-domain in vivo optical imaging of head ROI, Abcb1-KO mice; parameters: species or system mouse; settings: i.v. injection, imaged 2–8 h, data not shown
# Text: as §1, §2
# [4] = no reference given; cited from earlier work
# Text: To enable prospective in vivo optical imaging of the distribution of peripherally-injected Aβ peptides, the peptides were labeled with the near-infrared fluorescent dye Cy5.5. Since the principal aim of the present study was to monitor brain distribution of Cy5.5-labeled Aβ peptide in mice lacking major ABC transporters, the fluorescent tracer itself should not be the substrate for these transporters. To compare the permeability of BBB for Cy5.5 in wild-type, Abcb1^-KO and Abcg2^-KO animals, equal amounts of Cy5.5 tracer were intravenously injected into two pairs of wild-type and knockout mice ...
# [5] = Serial whole-body imaging (biodistribution and systemic elimination); assay type: in vivo, mouse; settings: 100 μg i.v.; wild-type, Abcg2-KO and Abcb1-KO mice
# Method: The animals were anesthetized with inhaled isoflurane (4% for induction and 1.5% for maintenance) and the fur was shaved from the head and dorsal side of the body. The labeled peptides (100 μg) or Cy5.5 free dye (~78 μg) were injected intravenously (i.v.) via the tail vein. The animals were imaged at 2, 4, 6, and 8 h post-injection using the time-domain optical imager eXplore Optix 670 (GE Healthcare Systems/ART Inc). The imaging protocols were described in detail previously.
# Briefly, each animal was positioned on a platform (dorsal side facing up) that was then placed on a heated plate (at 36°C) in the imaging system. The whole-body scan or selected region of interest (ROI) scan (i.e., head) was performed as described. […] The fluorescence emission at 700 nm was collected by a highly sensitive photomultiplier tube offset by 3 mm for diffuse optical topography reconstruction. […] A pulsed light source and time-resolved detection allows the system to resolve the nanosecond timescale of fluorescence emission. […] The data were thus recorded as TPSF and the images were reconstructed as fluorescence concentration maps. Average fluorescence concentration data from ROI placed around the heads were subsequently analyzed using the software ART Optix Optiview (ART Inc., Montreal, QC, Canada). […] Brains were then extracted and scanned ex-vivo for fluorescence concentration […]
# [6] = Aβ-Cy5.5 conjugate stability in serum; assay type: in vitro ADME, bovine; settings: 1:8 v/v, ~1 μg Aβ, 37°C, 0–8 h, Tricine-SDS-PAGE, optical imaging and 6E10 immunoblot
# Method: To evaluate Aβ-Cy5.5 conjugate stability in serum, the labeled peptide (5-μL volume containing ~1 μg Aβ) was added to either 35 μL of (non-inactivated) FBS or 35 μL of 1 × PBS (1: 8 dilution) and incubated at 37°C for 0, 0.5, 1, 2, 4, 6, and 8 hours, respectively. The peptides (4 μL) from each of the above reactions (40 μL/reaction) were added to the loading buffer, boiled for 10 min, and resolved on a 16% Tricine-SDS-PAGE as described. The tricine-SDS-PAGE gel was scanned in the optical imager; the peptides in the gel were then transferred to a PVDF membrane for immuno-blotting. A mouse monoclonal anti-human Aβ antibody 6E10 (1:1000 dilution) and the secondary HRP-conjugated donkey anti-mouse IgG antibody (1:5000 dilution) were used for immunodetection. ECL plus detection reagents were applied to the blots and the blots were exposed to autoradiography films.
# [7] = Aβ immunohistochemistry in brain sections (6E10 antibody); assay type: in vivo, mouse; settings: 100 μg i.v., brains collected 8 h post-injection; wild-type and Abcg2-KO mice; 3 animals per group
# Text: The sections were also counter-stained with fluorescein-labeled lectin, Ulex europeaus agglutinin (UEA-I), as described to visualize cerebral vessels.
# [8] = in vivo, cited from earlier work
# Method: Head ROI imaging protocols were initiated 2 hours after tracer injection, allowing 3–4 circulation half-lives; therefore, measured head fluorescence concentration was primarily indicative of the brain-accumulated/retained tracer, with small contribution of circulating tracer.
molecule,measurement,setting,value
COc1cc2c(cc1OC)CN(CCc1ccc(NC(=O)c3cccc4c(=O)c5cccc(OC)c5[nH]c34)cc1)CC2 [GF120918],Effect on brain uptake of [3H]-Aβ1-40,Abcb1 and Abcg2,strongly enhanced
Aβ1-40: Synthetic human Aβ1-40 peptide purchased from Biopeptides Co.,Proportion of peptide present as monomers,[1],> 95%
Cy5.5,Fluorescence in the head ROI after circulation time,[2],close to background
same,"Head ROI fluorescence, wild-type versus Abcg2-KO",Abcg2,not different
same,"Head ROI fluorescence, wild-type versus Abcb1-KO",[3],not different
same,Plasma half-life,[4],about 30 min
same,Time in which majority of the dye is cleared from the body,[4],2 h
Cy5.5-labeled Aβ1-40: Synthetic human Aβ1-40 peptide labeled with the near-infrared fluorescent dye Cy5.5 (Mono NHS ester),Whole-body elimination of fluorescence,[5],almost complete disappearance of fluorescence from the body between 2 h and 4 h after injection
same,Stability of conjugate in PBS,[6]; 1 × PBS,no appreciable reductions of intact Aβ peptide bands
same,Stability of conjugate in serum ex vivo,[6]; non-inactivated FBS,mostly intact in the serum ex vivo up to 8 hours
same,Immunoreactive Aβ in brain sections,[7],detected
"[^123I]-Aβ1-40: intracerebrally microinfused 123I-labeled Aβ1-40, literature SPECT study",Brain clearance short t1/2 (bi-phasic),[8]; monkey,1.1 ~ 2.7 hours
"[^125I]-Aβ1-40: brain-injected 125I-labeled Aβ1-40 peptide, literature",Brain clearance t1/2,[8],25 min
